Experiment [1] concerns the target T1, properdin (human, UniProt P27918 28-469).
T1 construct: properdin (complement factor P), human; the oligomeric state of the purified protein was not measured here; also called purified properdin; source: bought: Complement Technologies (CompTech), purified; bought: TECOmedical GmbH (peptide ELISA); endogenous, normal human serum (NHS)
Description: BLI; BLITZ system; His-tagged ARMS2 loaded on Ni2+ NTA biosensors in PBS with 0.1% gelatin; properdin 70 to 1800 nM; 1:1 model. The settings on record: both partners purified.

In experiment [2] the target is T1, properdin. Description: ELISA; ARMS2 peptides 1, 2, 3 (each 500 nM) coated on the plate; 2 uM properdin (TECOmedical) in PBS; detected with monoclonal properdin antibody. The settings on record: both partners purified.

We go through two molecules from article PMC5234120, “Age-related macular degeneration associated polymorphism rs10490924 in ARMS2 results in deficiency of a complement activator” (Journal of Neuroinflammation, 2017).

T1 sequence (P27918 28-469): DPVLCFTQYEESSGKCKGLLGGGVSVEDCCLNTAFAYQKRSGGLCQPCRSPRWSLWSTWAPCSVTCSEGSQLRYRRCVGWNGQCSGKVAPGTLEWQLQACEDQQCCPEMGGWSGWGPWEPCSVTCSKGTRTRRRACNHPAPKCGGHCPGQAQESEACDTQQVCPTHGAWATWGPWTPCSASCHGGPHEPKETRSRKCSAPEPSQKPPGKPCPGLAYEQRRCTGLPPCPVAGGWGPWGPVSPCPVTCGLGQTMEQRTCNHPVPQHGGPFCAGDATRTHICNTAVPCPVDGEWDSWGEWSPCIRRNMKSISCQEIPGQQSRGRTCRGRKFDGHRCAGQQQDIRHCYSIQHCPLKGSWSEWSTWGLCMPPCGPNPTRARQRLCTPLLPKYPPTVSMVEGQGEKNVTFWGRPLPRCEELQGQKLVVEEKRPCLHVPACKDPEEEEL

B1: recombinant ARMS2 (age-related maculopathy susceptibility 2) (natural protein, human, UniProt P0C7Q2 1-107, looked up)
chain: MLRLYPGPMVTEAEGKGGPEMASLSSSVVPVSFISTLRESVLDPGVGGEGASDKQRSKLSLSHSMIPAAKIHTELCLPAFFSPAGTQRRFQQPQHHLTLSIIHTAAR
notes: ARMS2, human, codon usage optimized full length cDNA; Glycosylated in P. pastoris (17 and 15 kDa bands); also called His-tagged ARMS2; rARMS2
The term Kd denotes the constant that tells how readily two partners part at equilibrium. Read a low Kd as a tighter complex. In the experiment with properdin [1], B1 came in with a Kd of 500 nM.

B2: ARMS2 peptide 3 (amino acids 71 to 107) (peptide)
peptide: IHTELCLPAFFSPAGTQRRFQQPQHHLTLSIIHTAAR
notes: ARMS2, human, amino acids 71 to 107; also called C-terminal peptide 3 of ARMS2; source: peptide generated by Jerini Peptide Biotechnologies
Turning to B2, the binding result with properdin [2] is “binds”.
